Measurements taken from the supplement of paper PMC7125110.
± gives the standard error. Fewer inactive variants are shown than the library holds.

B1: glmS ribozyme (parent)
chain: AUAAAAGCGCCAGAACUACAGAAAUGUAGUUGACGAGGAGGAGGUUUAUCGAAUUUUCGGCGGAUGCCUCCAAA

Legend:
Details in all cases: with glucosamine-6-phosphate
glucosamine-6-phosphate [1] = variants of: B1; test: self-cleavage kobs at 160 uM GlcN6P; higher = faster cleavage; RNA array
Method in brief: (§1)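 Weighted Michaelis–Menten fits across concentrations supplied kcat and KM, based on kobs from one- or two-exponential decay fits to normalised per-tile medians. The data came from barcoded ribozyme variants transcribed in situ by E. coli RNA polymerase on sequenced MiSeq chips and tracked at 37 °C by a hybridised Cy3 probe. Glucosamine-6-phosphate (40 μM to 10 mM) in HEPES/KCl/Mg(OAc)2 buffer was flowed in.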

glucosamine-6-phosphate [2] = variants of: B1; test: self-cleavage kobs at 640 uM GlcN6P; higher = faster cleavage; RNA array
Method in brief: as §1

glucosamine-6-phosphate [3] = variants of: B1; test: self-cleavage kobs at 2500 uM GlcN6P; higher = faster cleavage; RNA array
Method in brief: as §1

glucosamine-6-phosphate [4] = variants of: B1; test: self-cleavage kobs at 10000 uM GlcN6P; higher = faster cleavage; RNA array
Method in brief: as §1

Row | Variant | self-cleavage kobs at 160 uM GlcN6P (glucosamine-6-phosphate [1]) [s⁻¹] | self-cleavage kobs at 640 uM GlcN6P (glucosamine-6-phosphate [2]) [s⁻¹] | self-cleavage kobs at 2500 uM GlcN6P (glucosamine-6-phosphate [3]) [s⁻¹] | self-cleavage kobs at 10000 uM GlcN6P (glucosamine-6-phosphate [4]) [s⁻¹]
1 | U45C A53U U69C | 9.96e-05 ± 2.7e-05 | 0.000489 ± 0.00012 | 0.000752 ± 0.00022 | 
2 | C16U G29C C50G | 0.000111 ± 3.4e-05 |  | 6.6e-05 ± 2.7e-05 | 
3 | G13U G51C U65G | < 1e-05 | < 1e-05 |  | 
4 | A52U U57A C68U | 8.55e-05 ± 2.1e-05 | 0.000196 ± 5.5e-05 | 0.000613 ± 0.00014 | 
5 | G29U A52G C61G C68U U69A | 4.87e-05 ± 1.6e-05 | 3.32e-05 ± 1.6e-05 |  | 
6 | G32C C34U A36U C61U | < 1e-05 | < 1e-05 |  | 
7 | A33U C34A C58U | < 1e-05 |  | < 1e-05 | 
8 | A12U A42U G44U C67G | 3.69e-05 ± 1.5e-05 | 0.000122 ± 3.2e-05 | 0.000326 ± 9.4e-05 | 
9 | U46C U54A | 0.000326 ± 8.6e-05 | 0.00148 ± 0.00038 |  | 
10 | C8A A42U U45G | < 1e-05 | < 1e-05 | < 1e-05 | 
11 | U55C G59C | < 1e-05 | < 1e-05 |  | 
12 | G9U C10U C67G | < 1e-05 | < 1e-05 | < 1e-05 | 
13 | G9A A48U | < 1e-05 | < 1e-05 | < 1e-05 | 
14 | C11A G29A C34A U57C | < 1e-05 | < 1e-05 |  | 
15 | A14U U55A U69A | 0.000101 ± 2.7e-05 |  | 8.95e-05 ± 1.1e-05 | 4.58e-05 ± 2e-05
16 | C8U G32C G43C C70G | < 1e-05 |  |  | 
17 | U30G G35C A36C A52U | < 1e-05 |  | < 1e-05 | 
18 | C10U A33C G43U G44A C67G | < 1e-05 | < 1e-05 | < 1e-05 | 
19 | G13C G44C C61A | < 1e-05 |  |  | 
20 | A52C A64C | < 1e-05 | < 1e-05 |  | < 1e-05
21 | C8A G44C | < 1e-05 | < 1e-05 | < 1e-05 | 
22 | C16G G37A A48U U49C | < 1e-05 |  |  | 
23 | G29A G32C A33U G60C G66U | < 1e-05 |  |  | < 1e-05
24 | G40A U47C | 0.000162 ± 4.2e-05 |  |  | 0.00144 ± 0.00069
25 | A36U G41C | < 1e-05 |  | < 1e-05 | < 1e-05
26 | G37A G43C | < 1e-05 |  | < 1e-05 | 
27 | G7C A48C C50U | < 1e-05 |  |  | < 1e-05

Row | Variant | self-cleavage kobs at 160 uM GlcN6P (glucosamine-6-phosphate [1]) [s⁻¹] | self-cleavage kobs at 640 uM GlcN6P (glucosamine-6-phosphate [2]) [s⁻¹] | self-cleavage kobs at 2500 uM GlcN6P (glucosamine-6-phosphate [3]) [s⁻¹] | self-cleavage kobs at 10000 uM GlcN6P (glucosamine-6-phosphate [4]) [s⁻¹]
28 | C10G C11G G37C A53G | < 1e-05 |  | < 1e-05 | 
29 | G66A C67A C70U | 0.000193 ± 4.7e-05 | 0.000467 ± 0.0001 | 0.000861 ± 0.0002 | 
30 | A20U U56C | 0.000306 ± 8.2e-05 |  | 0.0029 ± 0.00075 | 
31 | G38C G44U C67G | < 1e-05 |  |  | < 1e-05
32 | G9A C10A | < 1e-05 | < 1e-05 | < 1e-05 | < 1e-05
33 | G38U G59A | < 1e-05 |  |  | 
34 | C16G G62C | < 1e-05 | < 1e-05 | < 1e-05 | 
35 | U54G C58G C67G | 0.000136 ± 3.4e-05 | 0.000215 ± 7.1e-05 | 8.44e-05 ± 3.2e-05 | 
36 | A6C G7C A15U | < 1e-05 | < 1e-05 | < 1e-05 | 
37 | A14G A53C | 0.00202 ± 0.00065 | 0.00488 ± 0.0012 | 0.01 ± 0.0023 | 0.0384 ± 0.016
38 | U57C G60A | < 1e-05 | < 1e-05 | < 1e-05 | 
39 | A53C G63C | < 1e-05 |  | < 1e-05 | < 1e-05
40 | G7C A14G C61U | < 1e-05 |  |  | 
41 | U30G A33U | < 1e-05 |  |  | 
42 | A12C C16G C70U | 0.000215 ± 8.1e-05 | 0.000259 ± 9.1e-05 | 0.00151 ± 0.00044 | 
43 | G35A C70G | < 1e-05 | < 1e-05 |  | 
44 | A12U C16A G41C | < 1e-05 |  |  | 
45 | C34A U45A C70U | < 1e-05 | < 1e-05 | < 1e-05 | 
46 | C10G G32U U54G C68A | 5.61e-05 ± 2.2e-05 |  |  | 
47 | G35U A64G | < 1e-05 | < 1e-05 | < 1e-05 | 
48 | G13A A33G A36U G40U U55A | < 1e-05 | < 1e-05 | < 1e-05 | 
49 | U31C G35C G40C | < 1e-05 |  | < 1e-05 | < 1e-05
50 | G7A G40A | < 1e-05 | < 1e-05 |  | 
51 | G7U C16U | < 1e-05 |  |  | 
52 | C10U G62C | < 1e-05 |  | < 1e-05 | < 1e-05
53 | G32C G44C C58U G59A U65A C71U | < 1e-05 |  |  | 
54 | A36U C61U A64G | < 1e-05 | < 1e-05 |  | 
